PMC10786891, “Massively parallel profiling of RNA-targeting CRISPR-Cas13d”

T1: EsCas13d, nuclease-dead (Eubacterium siraeum, UniProt B0MS50, R295A;H300A;R849A;H854A)
T1 sequence: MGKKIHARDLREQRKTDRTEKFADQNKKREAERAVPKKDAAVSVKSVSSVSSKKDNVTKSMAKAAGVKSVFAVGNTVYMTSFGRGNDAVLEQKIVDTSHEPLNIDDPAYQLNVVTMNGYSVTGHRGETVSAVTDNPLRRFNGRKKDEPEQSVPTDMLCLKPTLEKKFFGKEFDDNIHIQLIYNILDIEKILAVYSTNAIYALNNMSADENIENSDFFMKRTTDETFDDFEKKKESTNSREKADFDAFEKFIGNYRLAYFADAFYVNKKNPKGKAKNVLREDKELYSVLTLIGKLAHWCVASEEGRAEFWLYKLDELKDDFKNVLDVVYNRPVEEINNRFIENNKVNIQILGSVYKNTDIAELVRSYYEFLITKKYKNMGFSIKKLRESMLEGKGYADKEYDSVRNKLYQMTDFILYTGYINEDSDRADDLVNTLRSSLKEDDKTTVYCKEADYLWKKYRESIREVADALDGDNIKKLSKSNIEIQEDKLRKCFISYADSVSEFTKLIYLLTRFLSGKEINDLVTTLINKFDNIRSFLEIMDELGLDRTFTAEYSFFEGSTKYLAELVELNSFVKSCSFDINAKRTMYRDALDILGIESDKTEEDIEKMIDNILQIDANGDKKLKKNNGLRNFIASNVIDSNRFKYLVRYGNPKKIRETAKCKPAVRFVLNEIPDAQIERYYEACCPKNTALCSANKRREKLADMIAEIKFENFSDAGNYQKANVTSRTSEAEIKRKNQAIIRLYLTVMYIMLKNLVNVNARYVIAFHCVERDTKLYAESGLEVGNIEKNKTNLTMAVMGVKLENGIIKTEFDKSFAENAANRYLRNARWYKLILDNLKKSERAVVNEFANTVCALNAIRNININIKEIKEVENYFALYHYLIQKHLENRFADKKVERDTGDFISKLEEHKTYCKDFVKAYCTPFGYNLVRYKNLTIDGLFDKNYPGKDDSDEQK

B1: target 2 MT 5'PFS GGC 3'PFS AGC (mixed)
RNA 1: CACCCGUGCAAAAUUGCAGGGGUCUAAAACCUUCUCCAAAUUGUUUCAUCCU
RNA 2: GGGAAUGGAUCCACAUCUACGAAUUCGGCAGGAUGAAACAAUUUGGAGAAGAGCAGAUCGGAAGAGCACACGU
B2: target 2 MT 5'PFS GCU 3'PFS AAU (mixed)
RNA 1: CACCCGUGCAAAAUUGCAGGGGUCUAAAACCUUCUCCAAAUUGUUUCAUCCU
RNA 2: GGGAAUGGAUCCACAUCUACGAAUUCGCUAGGAUGAAACAAUUUGGAGAAGAAUAGAUCGGAAGAGCACACGU
B3: target 2 MT 5'PFS CAU 3'PFS CCC (mixed)
RNA 1: CACCCGUGCAAAAUUGCAGGGGUCUAAAACCUUCUCCAAAUUGUUUCAUCCU
RNA 2: GGGAAUGGAUCCACAUCUACGAAUUCCAUAGGAUGAAACAAUUUGGAGAAGCCCAGAUCGGAAGAGCACACGU
B4: target 2 MT 5'PFS GGC 3'PFS UAC (mixed)
RNA 1: CACCCGUGCAAAAUUGCAGGGGUCUAAAACCUUCUCCAAAUUGUUUCAUCCU
RNA 2: GGGAAUGGAUCCACAUCUACGAAUUCGGCAGGAUGAAACAAUUUGGAGAAGUACAGAUCGGAAGAGCACACGU
B5: target 2 MT 5'PFS UUU 3'PFS AAA (mixed)
RNA 1: CACCCGUGCAAAAUUGCAGGGGUCUAAAACCUUCUCCAAAUUGUUUCAUCCU
RNA 2: GGGAAUGGAUCCACAUCUACGAAUUCUUUAGGAUGAAACAAUUUGGAGAAGAAAAGAUCGGAAGAGCACACGU
B6: target 2 MT 5'PFS GUA 3'PFS UCU (mixed)
RNA 1: CACCCGUGCAAAAUUGCAGGGGUCUAAAACCUUCUCCAAAUUGUUUCAUCCU
RNA 2: GGGAAUGGAUCCACAUCUACGAAUUCGUAAGGAUGAAACAAUUUGGAGAAGUCUAGAUCGGAAGAGCACACGU
B7: target 2 MT 5'PFS UCG 3'PFS CUA (mixed)
RNA 1: CACCCGUGCAAAAUUGCAGGGGUCUAAAACCUUCUCCAAAUUGUUUCAUCCU
RNA 2: GGGAAUGGAUCCACAUCUACGAAUUCUCGAGGAUGAAACAAUUUGGAGAAGCUAAGAUCGGAAGAGCACACGU
B8: target 2 MT 5'PFS GGC 3'PFS AGA (mixed)
RNA 1: CACCCGUGCAAAAUUGCAGGGGUCUAAAACCUUCUCCAAAUUGUUUCAUCCU
RNA 2: GGGAAUGGAUCCACAUCUACGAAUUCGGCAGGAUGAAACAAUUUGGAGAAGAGAAGAUCGGAAGAGCACACGU
B9: target 2 MT 5'PFS UUU 3'PFS AAG (mixed)
RNA 1: CACCCGUGCAAAAUUGCAGGGGUCUAAAACCUUCUCCAAAUUGUUUCAUCCU
RNA 2: GGGAAUGGAUCCACAUCUACGAAUUCUUUAGGAUGAAACAAUUUGGAGAAGAAGAGAUCGGAAGAGCACACGU
B10: target 2 MT 5'PFS GAC 3'PFS CGG (mixed)
RNA 1: CACCCGUGCAAAAUUGCAGGGGUCUAAAACCUUCUCCAAAUUGUUUCAUCCU
RNA 2: GGGAAUGGAUCCACAUCUACGAAUUCGACAGGAUGAAACAAUUUGGAGAAGCGGAGAUCGGAAGAGCACACGU
B11: target 2 MT 5'PFS GGC 3'PFS CAA (mixed)
RNA 1: CACCCGUGCAAAAUUGCAGGGGUCUAAAACCUUCUCCAAAUUGUUUCAUCCU
RNA 2: GGGAAUGGAUCCACAUCUACGAAUUCGGCAGGAUGAAACAAUUUGGAGAAGCAAAGAUCGGAAGAGCACACGU
B12: target 2 MT 5'PFS CUU 3'PFS AUU (mixed)
RNA 1: CACCCGUGCAAAAUUGCAGGGGUCUAAAACCUUCUCCAAAUUGUUUCAUCCU
RNA 2: GGGAAUGGAUCCACAUCUACGAAUUCCUUAGGAUGAAACAAUUUGGAGAAGAUUAGAUCGGAAGAGCACACGU
B13: target 2 MT 5'PFS GCU 3'PFS CCG (mixed)
RNA 1: CACCCGUGCAAAAUUGCAGGGGUCUAAAACCUUCUCCAAAUUGUUUCAUCCU
RNA 2: GGGAAUGGAUCCACAUCUACGAAUUCGCUAGGAUGAAACAAUUUGGAGAAGCCGAGAUCGGAAGAGCACACGU
B14: target 2 MT 5'PFS GGC 3'PFS CAG (mixed)
RNA 1: CACCCGUGCAAAAUUGCAGGGGUCUAAAACCUUCUCCAAAUUGUUUCAUCCU
RNA 2: GGGAAUGGAUCCACAUCUACGAAUUCGGCAGGAUGAAACAAUUUGGAGAAGCAGAGAUCGGAAGAGCACACGU
B15: target 2 MT 5'PFS UUU 3'PFS AAU (mixed)
RNA 1: CACCCGUGCAAAAUUGCAGGGGUCUAAAACCUUCUCCAAAUUGUUUCAUCCU
RNA 2: GGGAAUGGAUCCACAUCUACGAAUUCUUUAGGAUGAAACAAUUUGGAGAAGAAUAGAUCGGAAGAGCACACGU
B16: target 2 MT 5'PFS GGC 3'PFS CAU (mixed)
RNA 1: CACCCGUGCAAAAUUGCAGGGGUCUAAAACCUUCUCCAAAUUGUUUCAUCCU
RNA 2: GGGAAUGGAUCCACAUCUACGAAUUCGGCAGGAUGAAACAAUUUGGAGAAGCAUAGAUCGGAAGAGCACACGU
B17: target 2 MT 5'PFS GGC 3'PFS CAC (mixed)
RNA 1: CACCCGUGCAAAAUUGCAGGGGUCUAAAACCUUCUCCAAAUUGUUUCAUCCU
RNA 2: GGGAAUGGAUCCACAUCUACGAAUUCGGCAGGAUGAAACAAUUUGGAGAAGCACAGAUCGGAAGAGCACACGU
B18: target 2 MT 5'PFS CAU 3'PFS CCA (mixed)
RNA 1: CACCCGUGCAAAAUUGCAGGGGUCUAAAACCUUCUCCAAAUUGUUUCAUCCU
RNA 2: GGGAAUGGAUCCACAUCUACGAAUUCCAUAGGAUGAAACAAUUUGGAGAAGCCAAGAUCGGAAGAGCACACGU
B19: target 2 MT 5'PFS CAU 3'PFS CCG (mixed)
RNA 1: CACCCGUGCAAAAUUGCAGGGGUCUAAAACCUUCUCCAAAUUGUUUCAUCCU
RNA 2: GGGAAUGGAUCCACAUCUACGAAUUCCAUAGGAUGAAACAAUUUGGAGAAGCCGAGAUCGGAAGAGCACACGU
B20: target 2 MT 5'PFS UUU 3'PFS AAC (mixed)
RNA 1: CACCCGUGCAAAAUUGCAGGGGUCUAAAACCUUCUCCAAAUUGUUUCAUCCU
RNA 2: GGGAAUGGAUCCACAUCUACGAAUUCUUUAGGAUGAAACAAUUUGGAGAAGAACAGAUCGGAAGAGCACACGU
B21: target 2 MT 5'PFS AAG 3'PFS UCU (mixed)
RNA 1: CACCCGUGCAAAAUUGCAGGGGUCUAAAACCUUCUCCAAAUUGUUUCAUCCU
RNA 2: GGGAAUGGAUCCACAUCUACGAAUUCAAGAGGAUGAAACAAUUUGGAGAAGUCUAGAUCGGAAGAGCACACGU
B22: target 2 MT 5'PFS GGC 3'PFS AGG (mixed)
RNA 1: CACCCGUGCAAAAUUGCAGGGGUCUAAAACCUUCUCCAAAUUGUUUCAUCCU
RNA 2: GGGAAUGGAUCCACAUCUACGAAUUCGGCAGGAUGAAACAAUUUGGAGAAGAGGAGAUCGGAAGAGCACACGU
B23: target 1 C2A,A9U (mixed)
RNA 1: CACCCGUGCAAAAAUGCAGGGGUCUAAAACUGAGCGGAUAACCUCUCUAUGG
RNA 2: GGGAAUGGAUCCACAUCUACGAAUUCGUACCAUAGAGAGGUUUUCCGCUAACCGAGAUCGGAAGAGCACACGU
B24: target 1 insG 3' of 20,insG 3' of 8 (mixed)
RNA 1: CACCCGUGCAAAAAUGCAGGGGUCUAAAACUGAGCGGAUAACCUCUCUAUGG
RNA 2: GGGAAUGGAUCCACAUCUACGAAUUCGUACCAGUAGAGAGGUUAUGCCGCUCACCGAGAUCGGAAGAGCACACGU

What follows are binders tested against T1, EsCas13d, nuclease-dead (assay: crRNA (strand 1, pre-loaded); Mg2+; 40 mM Tris-HCl pH 7.5, 150 mM NaCl, 6 mM MgCl2, 1 mM DTT, 0.1% Tween-20, 0.2 mg/ml BSA; 25 C; 10 min per concentration, then washed). Settings: tags: His6-TwinStrep-SUMO cleaved; N-terminal SNAP kept (SNAP-Surface 488); label: 3' end held by stalled T7 RNA polymerase.

**Q.** Which Kd does the source give for B1 here?
**A.** 12.1 ± 1.6 nM

**Q.** B2 was tested. Which Kd did it give?
**A.** 12 ± 4 nM

**Q.** B3 was tested. Which Kd did it give?
**A.** 16 ± 6 nM

**Q.** B4 was tested. Which Kd did it give?
**A.** 18.9 ± 3.5 nM

**Q.** How did the Kd turn out when B5 was run?
**A.** 8.9 ± 1.2 nM

**Q.** How did the Kd turn out when B6 was run?
**A.** 18.6 ± 2.7 nM

**Q.** For B7, which Kd is on record?
**A.** 32 ± 10 nM

**Q.** Which Kd does the source give for B8 here?
**A.** 10.4 ± 2 nM

**Q.** B9 was tested. Which Kd did it give?
**A.** 7.1 ± 0.9 nM

**Q.** With B10 as the binder, how does the Kd read?
**A.** 8.9 ± 1 nM

**Q.** With B11 as the binder, how does the Kd read?
**A.** 8.9 ± 1.7 nM

**Q.** For B12, which Kd is on record?
**A.** 3.9 ± 0.4 nM

**Q.** B13 was tested. Which Kd did it give?
**A.** 17.9 ± 3.4 nM

**Q.** For B14, which Kd is on record?
**A.** 12.1 ± 1.4 nM

**Q.** Which Kd does the source give for B15 here?
**A.** 9.9 ± 1.2 nM

**Q.** With B16 as the binder, how does the Kd read?
**A.** 14.4 ± 2 nM

**Q.** How did the Kd turn out when B17 was run?
**A.** 15.8 ± 3.1 nM

**Q.** How did the Kd turn out when B18 was run?
**A.** 11.5 ± 1.6 nM

**Q.** With B19 as the binder, how does the Kd read?
**A.** 4.07 ± 0.31 nM

**Q.** With B20 as the binder, how does the Kd read?
**A.** 7.3 ± 0.8 nM

**Q.** For B21, which Kd is on record?
**A.** 20 ± 6 nM

**Q.** B22 was tested. Which Kd did it give?
**A.** 14.9 ± 1.8 nM

**Q.** B23 was tested. Which Kd did it give?
**A.** 8.3 ± 0.4 nM

**Q.** For B24, which Kd is on record?
**A.** 40 ± 4 nM
